Assay results published in PMC3937308, “The Post-transcriptional Regulator rsmA/csrA Activates T3SS by Stabilizing the 5′ UTR of hrpG, the Master Regulator of hrp/hrc Genes, in Xanthomonas”.

Tests used:
[1] = molecular target: T1, 6HisRsmA (RsmAxcc) (Xanthomonas citri subsp. citri strain …, UniProt Q8PLP9 1-70); assay: EMSA; 65 nM protein, 6.25 nM RNA; 10 mM HEPES pH 7.3, 20 mM KCl, 1 mM MgCl2, 1 mM DTT, 5% glycerol, 0.1 µg/µL yeast tRNA, 20 U RNasin, 25 °C 20 min; 5% native PAGE; details: protein: recombinant; tags: N-terminal 6xHis (pET-28a, NdeI site); chain copies: 2
[2] = molecular target: T1, 6HisRsmA (RsmAxcc); assay: EMSA; 10 mM HEPES pH 7.3, 20 mM KCl, 1 mM MgCl2, 1 mM DTT, 5% glycerol, 0.1 µg/µL yeast tRNA, 20 U RNasin, 25 °C 20 min; 5% native PAGE; details: protein: recombinant; tags: N-terminal 6xHis (pET-28a, NdeI site); chain copies: 2; label: 3' biotin
[3] = molecular target: T1, 6HisRsmA (RsmAxcc); assay: EMSA; apparent Kd; 6.25 nM RNA; 10 mM HEPES pH 7.3, 20 mM KCl, 1 mM MgCl2, 1 mM DTT, 5% glycerol, 0.1 µg/µL yeast tRNA, 20 U RNasin, 25 °C 20 min; 5% native PAGE; details: protein: recombinant; tags: N-terminal 6xHis (pET-28a, NdeI site); chain copies: 2; label: 3' biotin

T1 sequence (Q8PLP9 whole entry): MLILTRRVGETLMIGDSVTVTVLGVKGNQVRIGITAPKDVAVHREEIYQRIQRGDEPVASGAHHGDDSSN

Binder	binding result [2]	also measured
GGGAAUUCAACUCCAUCUAGGCACAAGGAUGUGCCAUAGUACUCAAGCU (structured_RNA) [R9-43]	–	binding result [1]: binds
GUGUACGGUCCGCAUGUCAUUAAAACGAGGUGCAGUGUG (ssRNA) [hrpB]	no binding	–
GCGCAGCGAUCGCGGAAGGAGAGGGCAAUG (ssRNA) [hrpC]	no binding	–
ACGAUGCAGCGAUCUUUGAAGAUGGAUUUUGUCCUGGCAUUG (ssRNA) [hrpG2]	–	Kd [3]: 180 ± 200 nM
AUUCGUCCAGCUCCGCUGGACUCUC (ssRNA) [hrpG1]	no binding	–
GCCCAUCGCGCAGAUUGGCAACAUACGGCUACACCGCAUG (ssRNA) [hrpF]	no binding	–
GUUAGGCGCCUGUUGUCUUUUGCUCCGCCCCCCAAAGAGAGAGAC (ssRNA) [hrpX]	no binding	–
